Reference: patent publication US20210347895A1 (IMMUNOME, published 2021)

What was measured:
BSA = target: T1, BSA (UniProt P02769 25-607); assay: flow cytometry; BSA-coated latex beads, two-colour dot plot of IMM20059 against anti-CD63
T1 construct: also called BSA-coated beads

recombinant PD-L1 = target: T2, recombinant PD-L1 (UniProt Q9NZQ7 19-238); assay: dot blot; recombinant PD-L1 spotted at 4, 10 and 40 ng, probed with the antibody
T2 construct: also called Programmed Death Ligand-1
T2 sequence (Q9NZQ7 19-238 limits assumed): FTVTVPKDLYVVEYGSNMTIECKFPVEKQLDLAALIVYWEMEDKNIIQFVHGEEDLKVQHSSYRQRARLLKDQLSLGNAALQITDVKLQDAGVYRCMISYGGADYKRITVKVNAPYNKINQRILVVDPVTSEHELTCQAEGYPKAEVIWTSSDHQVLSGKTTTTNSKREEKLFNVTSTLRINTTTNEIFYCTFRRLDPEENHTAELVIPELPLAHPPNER
From the text: Binding activity of anti-EPN1/anti-PD-L1 DVD-IgG bispecific antibodies. […] Purified recombinant proteins were spotted at three dose levels as depicted in FIG. 10, and probed with the four anti-EPN1/anti-PD-L1 bispecific antibodies. […] An antibody specific for a coat protein on the dengue virus served as a negative control.

T1 sequence (P02769 25-607 limits assumed): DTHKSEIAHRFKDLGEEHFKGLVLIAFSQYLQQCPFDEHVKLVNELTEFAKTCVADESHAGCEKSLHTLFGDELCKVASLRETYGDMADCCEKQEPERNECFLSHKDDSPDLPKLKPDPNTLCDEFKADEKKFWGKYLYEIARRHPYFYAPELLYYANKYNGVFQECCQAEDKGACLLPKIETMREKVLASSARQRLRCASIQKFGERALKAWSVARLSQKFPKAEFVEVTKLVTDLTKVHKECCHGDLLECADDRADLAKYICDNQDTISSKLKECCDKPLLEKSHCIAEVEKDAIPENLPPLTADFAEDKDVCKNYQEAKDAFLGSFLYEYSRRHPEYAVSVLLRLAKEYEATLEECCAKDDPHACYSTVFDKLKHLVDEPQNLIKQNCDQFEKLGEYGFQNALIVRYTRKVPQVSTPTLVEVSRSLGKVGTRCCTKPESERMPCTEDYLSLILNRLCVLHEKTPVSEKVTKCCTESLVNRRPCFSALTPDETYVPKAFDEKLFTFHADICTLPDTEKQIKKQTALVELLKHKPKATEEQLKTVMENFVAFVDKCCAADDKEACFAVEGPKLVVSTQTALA

B1: IMM20059 (antibody, V domains shown)
VH: EVQLVESGGGLVQPGGSLRLSCAASGFTFSIHSLNWVRQAPGKGLEWVSYISSNSTTIYYADSVKGRFTISRDNAKDSLYLQMNSLRDEDTAVYYCARDYYCTGGTCFFLPDLWGRGALVTVSS
VL: EIVLTQSPATLSLSPGERATLSCRASQNISNFLAWYQHKPGQAPRLLIYDASIRATGIPARFSGSGSGTDFSLTISSLEPEDFAVYFCQQRYNWLTFGGGTKVEIKR
notes: Recombinantly expressed human IgG1 with the PR045-2H11 VH and VL domains
binding result (BSA): no binding | binding result (recombinant PD-L1): no binding (tested: 40 ng)
